This is an account of results in US20240148883A1, “Branched Linkers for Antibody-Drug Conjugates and Methods of Use Thereof” (priority 2021, published 2024).

SMILES strings stand for the structures. Where two headings read alike, the source gives them in different places.

The format of data set [1] is physicochemical. As to the method:
(§1) Methods: Antibodies (15 mg/mL) bearing one or two aldehyde tags (single or double-tagged constructs) were conjugated to linker-payloads at 1.1 or 1.7 mM, respectively. Reactions proceeded for 72 h at 37° C. in 20 mM sodium citrate, 50 mM NaCl pH 5.5 (20/50 buffer) containing 0.85-2.5% DMA. […] After conjugation, free drug was removed using a 30 kD MWCO 0.5 mL Amicon spin concentrator. Samples were added to the spin concentrator, centrifuged at 15,000×g for 7 min, then diluted with 450 μL 20 mM sodium citrate, 50 mM NaCl pH 5.5 and centrifuged again. The process was repeated 10 times. To determine the DAR of the final product, ADCs were examined by analytical chromatography using HIC (Tosoh #14947) or PLRP-RP (Agilent PL1912-1802 1000 A, 8 um, 50×2.1 mm) columns. HIC analysis used mobile phase A: 1.5 M ammonium sulfate, 25 mM sodium phosphate pH 7.0, and mobile phase B: 25% isopropanol, 18.75 mM sodium phosphate pH 7.0. PLRP analysis used mobile phase A: 0.1% trifluoroacetic acid in water, and mobile phase B: 0.1% trifluoroacetic acid in acetonitrile. Prior to PLRP analysis, sample was denatured with the addition of 50 mM DTT, 4 M guanidine HCl (final concentrations) and heating at 37° C. for 30 min. To determine aggregation, samples were analyzed using analytical size exclusion chromatography (SEC; Tosoh #08541) with a mobile phase of 300 mM NaCl, 25 mM sodium phosphate pH 6.8 with 5% isopropanol.

The nature of data set [2]: Aggregation of conjugates by analytical size exclusion chromatography (SEC): % monomeric / % HMW. The class given is physicochemical. As for the experimental part: as §1
A general note: SEC sorts molecules by how far they enter the pores of the column.

Where [3] appears, read: conjugated to antibody against Target 1.
Setting [4] is: conjugated to antibody against Target 2.
[5] abbreviates: conjugated to antibody against Target 3.
[6] abbreviates: conjugated to antibody against Target 4.
Where [7] appears, read: conjugated to antibody against Target 5.
Where [8] appears, read: conjugated to antibody against Target 7.
Setting [9] is: conjugated to antibody against Target 8.
[10] abbreviates: conjugated to antibody against Target 9.
The mark [11] stands for this setting: conjugated to antibody against Target 10.

As for `CC[C@@]1(O)C(=O)OCc2c1cc1n(c2=O)Cc2c-1nc1ccccc1c2CCN(C(=O)OCc1ccc(NC(=O)[C@H](C)NC(=O)[C@@H](NC(=O)CCC(=O)Nc2ccc3c(c2)cc(CN(C)NC)n3CCC(=O)N[C@H](C(=O)N[C@@H](C)C(=O)Nc2ccc(COC(=O)N(CCc3c4c(nc5ccccc35)-c3cc5c(c(=O)n3C4)COC(=O)[C@]5(O)CC)C(C)C)cc2O[C@@H]2O[C@H](C(=O)O)[C@@H](O)[C@H](O)[C@H]2O)C(C)C)C(C)C)c(O[C@@H]2O[C@H](C(=O)O)[C@@H](O)[C@H](O)[C@H]2O)c1)C(C)C` [Compound 18], the DAR in data set [1] (setting [3]) is 6.82; in data set [1] (setting [4]) it was 6.16; in data set [1] (setting [5]), 4.31; in data set [1] (setting [6]), 6.97; in data set [1] (setting [7]) it was 5.45; in data set [1] (setting [8]) it was 6.88. Further, the values for the DAR in data set [1] (setting [9]), in data set [1] (setting [10]) and in data set [1] (setting [11]) were 6.1, 6.84 and 5.49, respectively. Moreover, the “% HMW (high-molecular weight species)” value is 1.8% in data set [2] (setting [3]); 6.5% in data set [2] (setting [4]); 4.3% in data set [2] (setting [5]); 0.6% in data set [2] (setting [6]); 0.8% in data set [2] (setting [7]); 2.0% in data set [2] (conjugated to antibody against Target 6). Moreover, the “% HMW (high-molecular weight species)” value in data set [2] (setting [8]) was found to be 1.6%; in data set [2] (setting [9]), 3.4%; in data set [2] (setting [10]), 1.5%; in data set [2] (setting [11]) it was 2.7%.

Regarding `CC[C@@]1(O)C(=O)OCc2c1cc1n(c2=O)Cc2c-1nc1ccccc1c2CCN(C(=O)OCc1ccc(NC(=O)[C@H](C)NC(=O)[C@@H](NC(=O)CCOCCOCCOCCOCCNC(=O)CCC(=O)Nc2ccc3c(c2)cc(CN(C)NC)n3CCC(=O)NCCOCCOCCOCCOCCC(=O)N[C@H](C(=O)N[C@@H](C)C(=O)Nc2ccc(COC(=O)N(CCc3c4c(nc5ccccc35)-c3cc5c(c(=O)n3C4)COC(=O)[C@]5(O)CC)C(C)C)cc2O[C@@H]2O[C@H](C(=O)O)[C@@H](O)[C@H](O)[C@H]2O)C(C)C)C(C)C)c(O[C@@H]2O[C@H](C(=O)O)[C@@H](O)[C@H](O)[C@H]2O)c1)C(C)C` [Compound 36], the DAR amounted to 6.78 in data set [1] (setting [4]); 6.33 in data set [1] (setting [5]); 6.88 in data set [1] (setting [7]); 6.55 in data set [1] (setting [9]); 6.32 in data set [1] (setting [10]); 6.33 in data set [1] (setting [11]). The “% HMW (high-molecular weight species)” value turned out to be 4.1% in data set [2] (setting [4]); 6.1% in data set [2] (setting [5]); 3.3% in data set [2] (setting [7]); 3.5% in data set [2] (setting [9]); 2.2% in data set [2] (setting [10]); 6.2% in data set [2] (setting [11]).
